Article PMC7001585 (Proteins, 2017)

Target: the molecule itself
Assay: crystal structure

B1: CepR2 ligand binding domain (CepR2-LBD, 1-170) (domain or fragment)
chain: SNAMDLTILHDCFDALQRAPTAEAAFPPIAAAAAALGFRYCVYGLRRTLPLARPDMQIVGNHPREWEHRYVKFGYVTIDPIIKRVASQPRPVVWNAFDEPGDTAFWHDAACFGMRYGWSHGGYDRAGNLGVLTLVRDTTPLDADEISRLRAPCASLSHAAHAYLMPRLADPIA
modifications: selenomethionine (SeMet-substituted protein; SeMet53 named)
stoichiometry N: 2
